Measured values as given in patent US20250179152A1 (TEXAS A AND M UNIVERSITY SYSTEM, published 2025).
Values joined by “and” are separate entries in the source; they are usually repeats but may differ in a detail not shown here. Equal entries are not always repeated.

Tests used:
[1] = molecular target: T1, human IgG1 Fc-tagged RBD, Wuhan-1 (SARS-CoV-2 (Wuhan-1); human, UniProt P0DTC2 319-541)
[2] = molecular target: human IgG1 Fc-tagged RBD of Omicron (SARS-CoV-2 (Omicron); human)
[3] = molecular target: Δ19 spike protein of strain B.1.351 on pseudotyped lentivirus (SARS-CoV-2 (B.1.351)); assay: cell-based or functional assay
[4] = molecular target: Δ19 spike protein of B.1.617.2 on pseudotyped lentivirus (SARS-CoV-2 (B.1.617.2)); assay: cell-based or functional assay
[5] = molecular target: Δ19 spike protein of C.37 on pseudotyped lentivirus (SARS-CoV-2 (C.37)); assay: cell-based or functional assay
[6] = molecular target: spike protein of authentic SARS-CoV-2 B.1.351 (SARS-CoV-2 (B.1.351)); assay: cell-based or functional assay
[7] = molecular target: spike protein of authentic SARS-CoV-2 B.1.617.2 (SARS-CoV-2 (B.1.617.2)); assay: cell-based or functional assay
[8] = molecular target: spike protein of authentic SARS-CoV-2 B.1.617.2/AY1 (SARS-CoV-2 (B.1.617.2.AY1)); assay: cell-based or functional assay
[9] = molecular target: spike protein of authentic SARS-CoV-2 B.1.1.519/BA.1 (SARS-CoV-2 (BA.1)); assay: cell-based or functional assay
[10] = molecular target: spike protein of authentic SARS-CoV-2 B.1.1.519/BA.1.1 (SARS-CoV-2 (BA.1.1)); assay: cell-based or functional assay
[11] = molecular target: spike protein of authentic SARS-CoV-2 B.1.1.519/BA.2 (SARS-CoV-2 (BA.2)); assay: cell-based or functional assay
[12] = molecular target: T1, human IgG1 Fc-tagged RBD, Wuhan-1; assay: ELISA; DARPin coated, Fc-tagged RBD titrated
[13] = molecular target: T2, human IgG1 Fc-tagged RBD, N439K (SARS-CoV-2; human, UniProt P0DTC2 319-541); assay: ELISA; DARPin coated, Fc-tagged RBD titrated
T2 construct: domain: RBD

[14] = molecular target: T3, human IgG1 Fc-tagged RBD, L452R (SARS-CoV-2; human, UniProt P0DTC2 319-541); assay: ELISA; DARPin coated, Fc-tagged RBD titrated
T3 construct: domain: RBD

[15] = molecular target: T4, human IgG1 Fc-tagged RBD, L452R + E484Q (SARS-CoV-2; human, UniProt P0DTC2 319-541); assay: ELISA; DARPin coated, Fc-tagged RBD titrated
T4 construct: domain: RBD

[16] = molecular target: T5, human IgG1 Fc-tagged RBD, L452R + T478K (SARS-CoV-2; human, UniProt P0DTC2 319-541); assay: ELISA; DARPin coated, Fc-tagged RBD titrated
T5 construct: domain: RBD

[17] = molecular target: T6, human IgG1 Fc-tagged RBD, S477N (SARS-CoV-2; human, UniProt P0DTC2 319-541); assay: ELISA; DARPin coated, Fc-tagged RBD titrated
T6 construct: domain: RBD

[18] = molecular target: T7, human IgG1 Fc-tagged RBD, T478K (SARS-CoV-2; human, UniProt P0DTC2 319-541); assay: ELISA; DARPin coated, Fc-tagged RBD titrated
T7 construct: domain: RBD

[19] = molecular target: T8, human IgG1 Fc-tagged RBD, E484Q (SARS-CoV-2; human, UniProt P0DTC2 319-541); assay: ELISA; DARPin coated, Fc-tagged RBD titrated
T8 construct: domain: RBD

[20] = molecular target: T9, human IgG1 Fc-tagged RBD, F486S (SARS-CoV-2; human, UniProt P0DTC2 319-541); assay: ELISA; DARPin coated, Fc-tagged RBD titrated
T9 construct: domain: RBD

[21] = molecular target: T10, human IgG1 Fc-tagged RBD, E484K (SARS-CoV-2; human, UniProt P0DTC2 319-541); assay: ELISA; DARPin coated, Fc-tagged RBD titrated
T10 construct: domain: RBD

[22] = molecular target: T11, human IgG1 Fc-tagged RBD, F490S (SARS-CoV-2; human, UniProt P0DTC2 319-541); assay: ELISA; DARPin coated, Fc-tagged RBD titrated
T11 construct: domain: RBD

[23] = molecular target: T12, human IgG1 Fc-tagged RBD, S494P (SARS-CoV-2; human, UniProt P0DTC2 319-541); assay: ELISA; DARPin coated, Fc-tagged RBD titrated
T12 construct: domain: RBD

[24] = molecular target: T13, human IgG1 Fc-tagged RBD, K417E (SARS-CoV-2; human, UniProt P0DTC2 319-541); assay: ELISA; DARPin coated, Fc-tagged RBD titrated
T13 construct: domain: RBD

[25] = molecular target: T14, human IgG1 Fc-tagged RBD, Y453F (SARS-CoV-2; human, UniProt P0DTC2 319-541); assay: ELISA; DARPin coated, Fc-tagged RBD titrated
T14 construct: domain: RBD

[26] = molecular target: T15, human IgG1 Fc-tagged RBD, L455F (SARS-CoV-2; human, UniProt P0DTC2 319-541); assay: ELISA; DARPin coated, Fc-tagged RBD titrated
T15 construct: domain: RBD

[27] = molecular target: T16, human IgG1 Fc-tagged RBD, G476S (SARS-CoV-2; human, UniProt P0DTC2 319-541); assay: ELISA; DARPin coated, Fc-tagged RBD titrated
T16 construct: domain: RBD

[28] = molecular target: T17, human IgG1 Fc-tagged RBD, F486V (SARS-CoV-2; human, UniProt P0DTC2 319-541); assay: ELISA; DARPin coated, Fc-tagged RBD titrated
T17 construct: domain: RBD

[29] = molecular target: T18, human IgG1 Fc-tagged RBD, K444Q (SARS-CoV-2; human, UniProt P0DTC2 319-541); assay: ELISA; DARPin coated, Fc-tagged RBD titrated
T18 construct: domain: RBD

[30] = molecular target: T19, human IgG1 Fc-tagged RBD, V445A (SARS-CoV-2; human, UniProt P0DTC2 319-541); assay: ELISA; DARPin coated, Fc-tagged RBD titrated
T19 construct: domain: RBD

[31] = molecular target: T20, human IgG1 Fc-tagged RBD, G446V (SARS-CoV-2; human, UniProt P0DTC2 319-541); assay: ELISA; DARPin coated, Fc-tagged RBD titrated
T20 construct: domain: RBD

B1: FSR22 (designed binder)
chain: MGSSHHHHHHSSGMEQKLISEEDLDGYIPEAPRDGQAYVRKDGEWVLLSTFLGGGGSLQGGGGSLQGSDLGKKLLEAARAGQDDEVRILMANGADVNACDPSGITPLHLAADKGHLEIVEVLLKYGADVNAMDVWGRTPLHLAAFTGHLEIVEVLLKYGADVNACDLNGYTPLHLAAGRGHLEIVEVLLKNGAGVNAQDKFGKTAFDISIDNGNEDLAEILQSSS
With B1 the Kd [1] was 12.3 nM, the Kd [2] was 2.63 nM and the “Neutralization IC50, pseudotyped lentivirus” value [3] was 9.5 ng/ml and 135 pM. The “Neutralization IC50, pseudotyped lentivirus” value [4] was 13.3 ng/ml and 188 pM, the “Neutralization IC50, pseudotyped lentivirus” value [5] was 6.3 ng/ml and 89 pM and the “Neutralization IC50, authentic SARS-CoV-2 virus” value [6] was 57.2 ngml^-1. The “Neutralization IC50, authentic SARS-CoV-2 virus” value [7] was 41.7 ngml^-1, the “Neutralization IC50, authentic SARS-CoV-2 virus” value [8] was 44.2 ngml^-1 and the “Neutralization IC50, authentic SARS-CoV-2 virus” value [9] was 169 ngml^-1. For the same binder, the “Neutralization IC50, authentic SARS-CoV-2 virus” value [10] was 41.2 ngml^-1, the “Neutralization IC50, authentic SARS-CoV-2 virus” value [11] was 216 ngml^-1 and the EC50 [12] was 1.96 nM. For the same binder, the EC50 [13] was 2.63 nM, the EC50 [14] was 1.87 nM and the EC50 [15] was 4.05 nM. The EC50 [16] was 7.83 nM, the EC50 [17] was 1.57 nM and the EC50 [18] was 15.2 nM. The EC50 [19] was 4.05 nM, the EC50 [20] was 70.5 nM and the EC50 [21] was 4.57 nM. It also gave an EC50 [22] of 1.57 nM, an EC50 [23] of 0.61 nM and an EC50 [24] of 300 nM. The EC50 [25] was 3.97 nM, the EC50 [26] was 9.24 nM and the EC50 [27] was 27.2 nM. The EC50 [28] was 105 nM, the EC50 [29] was 5.92 nM and the EC50 [30] was 3.43 nM. For the same binder, the EC50 [31] was 30.6 nM.

B2: FSR16m (designed binder)
chain: MGMEQKLISEEDLDGYIPEAPRDGQAYVRKDGEWVLLSTFLGGGGSLQGGGGSLQGSDLGKKLLEAARAGQDDEVRILMANGADVNALDLFGVTPLHLAAERGHLEIVEVLLKNGADVNAGDAFGRTPLHLAALGGHLEIVEVLLKNGADVNACDLYGVTPLHLAAGLGHLEIVEVLLKNGADVNAQDKFGKTAFDISIDNGNEDLAEILQSSSKLAAALEHHHHHH
For B2, the Kd [1] was under 0.001 nM, the Kd [2] was 3.65 nM and the “Neutralization IC50, pseudotyped lentivirus” value [3] was 18 pM and 1.3 ng/ml. For the same binder, the “Neutralization IC50, pseudotyped lentivirus” value [4] was 66 pM and 4.8 ng/mL, the “Neutralization IC50, pseudotyped lentivirus” value [5] was 0.9 ng/ml and 13 pM and the “Neutralization IC50, authentic SARS-CoV-2 virus” value [6] was 3.4 ngml^-1. For the same binder, the “Neutralization IC50, authentic SARS-CoV-2 virus” value [7] was 2.2 ngml^-1, the “Neutralization IC50, authentic SARS-CoV-2 virus” value [8] was 3.3 ngml^-1 and the “Neutralization IC50, authentic SARS-CoV-2 virus” value [9] was 44.7 ngml^-1. For the same binder, the “Neutralization IC50, authentic SARS-CoV-2 virus” value [10] was 7.4 ngml^-1, the “Neutralization IC50, authentic SARS-CoV-2 virus” value [11] was 33.3 ngml^-1 and the EC50 [12] was 0.59 nM. For the same binder, the EC50 [13] was 0.75 nM, the EC50 [14] was 0.37 nM and the EC50 [15] was 0.21 nM. The EC50 [16] was 0.13 nM, the EC50 [17] was 0.63 nM and the EC50 [18] was 0.19 nM. The EC50 [19] was 0.34 nM, the EC50 [20] was at least 300 nM and the EC50 [21] was 0.21 nM. It also gave an EC50 [22] of 0.15 nM, an EC50 [23] of 0.26 nM and an EC50 [24] of 300 nM. The EC50 [25] was 0.74 nM, the EC50 [26] was 0.1 nM and the EC50 [27] was 5.73 nM. For the same binder, the EC50 [28] was 300 nM, the EC50 [29] was 1.03 nM and the EC50 [30] was 0.46 nM. For the same binder, the EC50 [31] was 7.65 nM.

B3: SR22 (designed binder)
chain: MGSSHHHHHHSSGLVPRGSHMEQKLISEEDLGSDLGKKLLEAARAGQDDEVRILMANGADVNACDPSGITPLHLAADKGHLEIVEVLLKYGADVNAMDVWGRTPLHLAAFTGHLEIVEVLLKYGADVNACDLNGYTPLHLAAGRGHLEIVEVLLKNGAGVNAQDKFGKTAFDISIDNGNEDLAEILQSSS
For B3, the “Neutralization IC50, pseudotyped lentivirus” value [3] was 1.1 µM and the “Neutralization IC50, pseudotyped lentivirus” value [4] was 69.8 nM.

B4: SR16m (designed binder)
chain: MGSSDLGKKLLEAARAGQDDEVRILMANGADVNALDLFGVTPLHLAAERGHLEIVEVLLKNGADVNAGDAFGRTPLHLAALGGHLEIVEVLLKNGADVNACDLYGVTPLHLAAGLGHLEIVEVLLKNGADVNAQDKFGKTAFDISIDNGNEDLAEILQSSSKLAAALEHHHHHH
For B4, the “Neutralization IC50, pseudotyped lentivirus” value [3] was 0.42 µM and the “Neutralization IC50, pseudotyped lentivirus” value [4] was 77.8 nM.
